The target in test [1] is HLA-DR2 (a mix of DRB1*1501 and DRB5*0101) (Homo sapiens, UniProt P01903+P01911+Q30154). Briefly: DELFIA competitive binding assay, solubilized HLA-DR2. Conditions: in words, from IC50 / plot of 1/IC50. The source says:
Measurement of the IC50 is preferably done by europium-streptavidin dissociation-enhanced lenthanide fluoroimmunoassay (DELFIA) and the IC50 typically calculated by four parameter fit analysis with the software program SOFTmax Pro.

Test [2] deals with HLA-DR3 (a mix of DRB1*0301 and DRB3*0101). In words: DELFIA competitive binding assay, solubilized HLA-DR3. Details: species or system human. Conditions: in words, from IC50. The procedure: The sequence of the AChRα subunit is shown with each of the transmembrane regions (M1-M4) indicated by a shaded box.) Ten-fold dilutions (preferably 1-100,000 nM) of unlabeled AChRα peptides were co-incubated at pH 5.5 with the biotinylated myelin basic protein peptide MBP 84-102, and the IC50 of binding to solubilized HLA-DR2 (a mix of DRB1*1501 and DRB5*0101) or HLA-DR3 (a mix of DRB1*0301 and DRB3*0101) was measured. Measurement of the IC50 is preferably done by europium-streptavidin dissociation-enhanced lenthanide fluoroimmunoassay (DELFIA) and the IC50 typically calculated by four parameter fit analysis with the software program SOFTmax Pro. FIG. 2 lists the IC50s of each AChRα peptide binding to HLA-DR2 and HLA-DR3.

“AChRα 419-437: synthetic peptide fragment of the acetylcholine receptor α subunit, residues 419-437 (IIGTLAVFAGRLIELNQQG)”: the “relative affinity for HLA-DR2” value in test [1] is listed as “high relative affinity”.

As to “AChRα 195-212: synthetic peptide fragment of the acetylcholine receptor α subunit, residues 195-212”, in test [2], the “affinity for HLA-DR3” value is reported as “high affinity”.

Regarding “AChRα 145-163: synthetic peptide fragment of the acetylcholine receptor α subunit, residues 145-163 (KLGTWTYDGSVVAINPESD)”, the “affinity for HLA-DR3” value in test [2] is “high affinity”.

Consider “AChRα 310-327: synthetic peptide fragment of the acetylcholine receptor α subunit, residues 310-327 (NWVRKVFIDTIPNIMFFS)”, for which the “relative affinity for HLA-DR2” value in test [1] is given as “high relative affinity”.

In the case of “AChRα 113-126: synthetic peptide fragment of the acetylcholine receptor α subunit, residues 113-126 (TGHITWTPPAIFKS)”, the “relative affinity for HLA-DR2” value in test [1] is on record as “high relative affinity”.

Values taken from patent US20050048066A1, “Identification of potential immunodominant acetylcholine receptor alpha subunit” (priority 2000, published 2005).
